Assays:
[1] = tested on: MS2 coat protein; test: apparent KD of MS2 coat protein; designed switch direction (-1 OFF switch, 1 ON switch): 1; higher = weaker reporter binding
Outline: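 Stalled E. coli RNA polymerase transcribed designed RNA switches on Illumina chips, which were then titrated with SNAP-549-labelled MS2 coat protein, doubling from 0.7 or 1.5 nM to 3 µM. Steps lasted from 0.8–1.5 h at the lowest concentration to 10–20 min at the highest. The apparent KD is each design's median over clusters of curve-fitted normalised fluorescence.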

[2] = tested on: MS2 coat protein; test: apparent KD of MS2 coat protein; higher = weaker reporter binding; conditions: Eterna round: R107
Outline: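 The buffer was 100 mM Tris-HCl pH 7.5 with 80 mM KCl and 4 mM MgCl2, used without or with constant ligand. In it, RNA switches transcribed on-chip from Illumina sequencing clusters were titrated with SNAP-549-labelled MS2 coat protein in twofold steps from 0.7 or 1.5 nM to 3 µM. Apparent KD for each design is the median of its normalised cluster binding-curve fits.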

[3] = Eterna round: R95, input ligand: microRNA oligo, concentration not stated
[4] = input ligand: theophylline 20 uM
[5] = input ligand: tryptophan 2.4 mM
[6] = input ligand: theophylline 2 mM

Sequence: GACAAUCUAUCUGAGGAUAUCAUGAAAAAAACAUGAGGAUCACCCAUGUGCAGGAAAACUGCAUAUGAGAAGGCAGAUAGAUUGA [salish99_SS2_r3_009] (puzzle: Same State 2)
- apparent KD of MS2 coat protein ([1]; Eterna round: R95, input ligand: FMN 200 uM): 19.7 nM
- apparent KD of MS2 coat protein [1, 3]: 155 nM
- apparent KD of MS2 coat protein ([1]; Eterna round: R95, input ligand: none): 1190 nM

Sequence: GGUAGGUUACUACCAAACAUGAGGAUCACCCAUGUAGGUGGGAAGGAUAUGGUACCUUUUAGGUACCAGAAGGUCCAUACGAUC [NGss mod of JL's mod of Fisker 2] (Eterna round: R96, puzzle: Same State NG 3)
- apparent KD of MS2 coat protein ([1]; input ligand: FMN 200 uM): 451 nM
- apparent KD of MS2 coat protein ([1]; input ligand: microRNA oligo, concentration not stated): 325 nM
- apparent KD of MS2 coat protein ([1]; input ligand: none): 562 nM

Sequence: GCAUCACAUGAGGAUCACCCAUGUCUUCGGAGCGGAGGAUAUGGUCACUGUAAACAGUGGCCAGAAGGCUGGAUGC [SS1 - Son of Teenbexe v3] (puzzle: Same State 1)
- apparent KD of MS2 coat protein [1, 3]: 26 nM

Sequence: UUUGAUAUGACAGAUACCAGCGUGUUGUUGAACAUGAGGAUCACCCAUGUAGUGAUCAAGCGCCCUUGGCAGCUGGUGUGUUAGG [7.P]
- apparent KD of MS2 coat protein ([2]; input ligand: arginine 13.2 mM): 55.5 nM
- apparent KD of MS2 coat protein [2, 4]: 323 nM
- apparent KD of MS2 coat protein [2, 5]: 158 nM

Sequence: UCGACGAUGACCAAAGGUCAGGAGUACGUACGAGGACCGGUACGGCCGCCACUCGAGGAGUGGGACAUGAGGAUCACCCAUGUGG [#20 Exclusion Tryptophan A]
- apparent KD of MS2 coat protein ([2]; input ligand: arginine 13.2 mM): 16.6 nM
- apparent KD of MS2 coat protein ([2]; input ligand: none): 38.2 nM
- apparent KD of MS2 coat protein [2, 4]: 51.4 nM
- apparent KD of MS2 coat protein [2, 6]: 43.7 nM
- apparent KD of MS2 coat protein [2, 5]: 37.4 nM

Sequence: GGUGGCUCCAUCGAUACCAGCCACCACCGAUAGACCACAUGAGGAUCACCCAUGUUGGGUGGCCCUUGGCAGCGGUGAAGCUGCC [#1 Same State - Theophylline B Attempt #4 (HarryS)]
- apparent KD of MS2 coat protein ([2]; input ligand: arginine 13.2 mM): 44.1 nM
- apparent KD of MS2 coat protein ([2]; input ligand: none): 304 nM
- apparent KD of MS2 coat protein [2, 4]: 416 nM
- apparent KD of MS2 coat protein [2, 6]: 34.5 nM
- apparent KD of MS2 coat protein [2, 5]: 657 nM

Sequence: ACAUGAGGAUCACCCAUGUACAUAAGGGAAGGAGCGCGGUGAGACGCAGGUAGGUCGCCCAUAAUAACAAACAUUAAAUUCAUGU [#25 Same State - Arginine A]
- apparent KD of MS2 coat protein ([2]; input ligand: arginine 13.2 mM): 17.2 nM
- apparent KD of MS2 coat protein ([2]; input ligand: none): 17.7 nM
- apparent KD of MS2 coat protein [2, 4]: 25.5 nM
- apparent KD of MS2 coat protein [2, 6]: 21.3 nM
- apparent KD of MS2 coat protein [2, 5]: 19.1 nM

Sequence: AUAUGAUCAUAUGAUACCAGAAAUGGUAUUCCUUUGUUUCUUACAUGAGGAUCACCCAUGUUCCCUUGGCAGCAUAUGAUCAUAU [ETHB #2]
- apparent KD of MS2 coat protein ([2]; input ligand: arginine 13.2 mM): 159 nM
- apparent KD of MS2 coat protein [2, 4]: 221 nM
- apparent KD of MS2 coat protein [2, 5]: 238 nM

Sequence: CGUGGUGGGACGGAUACCAGCCACCGCGGCAACGCAACAUGAGGAUCACCCAUGUUGGGUGGCCCUUGGCAGCUGUGCUGCGACG [#1 Same State - Theophylline B Attempt #28 (HarryS)]
- apparent KD of MS2 coat protein ([2]; input ligand: arginine 13.2 mM): 50.9 nM
- apparent KD of MS2 coat protein ([2]; input ligand: none): 182 nM
- apparent KD of MS2 coat protein [2, 4]: 191 nM
- apparent KD of MS2 coat protein [2, 6]: 34.2 nM
- apparent KD of MS2 coat protein [2, 5]: 95.2 nM

Sequence: AGAGAUGAACAUGAGGAUCACCCAUGUAAACGAGGACCGGUACGGCCGCCACUCGUGGGUGUAAUAGAAUAAUAAGAGAAUAAUA [Turkey 1]
- apparent KD of MS2 coat protein ([2]; input ligand: arginine 13.2 mM): 24.4 nM
- apparent KD of MS2 coat protein ([2]; input ligand: none): 63.2 nM
- apparent KD of MS2 coat protein [2, 4]: 92 nM
- apparent KD of MS2 coat protein [2, 6]: 59.6 nM
- apparent KD of MS2 coat protein [2, 5]: 75.5 nM

Sequence: UUAAUCUAUAAUGAAAACAUUAUAGCAGAAGGAGCGUGAUAAAACACAGGUAGGUCGCUGAAGGGAACAUGAGGAUCACCCAUGU [AstrosSSArgA#12]
- apparent KD of MS2 coat protein ([2]; input ligand: arginine 13.2 mM): 24.3 nM
- apparent KD of MS2 coat protein ([2]; input ligand: none): 28.7 nM
- apparent KD of MS2 coat protein [2, 4]: 40.5 nM
- apparent KD of MS2 coat protein [2, 6]: 39.4 nM
- apparent KD of MS2 coat protein [2, 5]: 23.6 nM

Sequence: CGUAUUGGAAACAGUACGAGUGAUCCGGUCCGAGGACCGGUACGGCCGCCACUCGAAAAUAAAUAACAUGAGGAUCACCCAUGUA [Ex Tryptophan A 8]
- apparent KD of MS2 coat protein ([2]; input ligand: arginine 13.2 mM): 19.5 nM
- apparent KD of MS2 coat protein [2, 4]: 21.6 nM
- apparent KD of MS2 coat protein [2, 6]: 19.8 nM

Sequence: AGUGAUGACCGAAGGAGCGCGGGAAACAUGAGGAUCACCCAUGUACUCCUCAGUGUUAUAACGCAGGUAGGUCGCGGUUAUGGCU [X-ArgiB-ms2@26]
- apparent KD of MS2 coat protein ([2]; input ligand: arginine 13.2 mM): 148 nM
- apparent KD of MS2 coat protein ([2]; input ligand: none): 180 nM
- apparent KD of MS2 coat protein [2, 4]: 296 nM
- apparent KD of MS2 coat protein [2, 6]: 328 nM
- apparent KD of MS2 coat protein [2, 5]: 279 nM

From the supplement of paper PMC9170038
